Test results taken from WO2016073157A1 (dated 2016).

T1: hVEGF109 (human, UniProt P15692-4 34-135, limits assumed)
T1 construct: Numbers count on the mature 165-amino acid VEGF, not on the precursor; also called human VEGF (hVEGF 109)
T1 sequence (looked up): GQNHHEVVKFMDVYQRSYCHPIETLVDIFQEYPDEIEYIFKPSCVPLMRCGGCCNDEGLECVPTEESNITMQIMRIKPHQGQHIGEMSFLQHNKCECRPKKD

T2: human Fc fusion of Ang2 protein (human, UniProt O15123 275-496, limits assumed)
T2 construct: Captured by anti-human Fc on the CM5 chip; also called hAng2 (SPR flow cell); not shown: human Fc
T2 sequence (looked up): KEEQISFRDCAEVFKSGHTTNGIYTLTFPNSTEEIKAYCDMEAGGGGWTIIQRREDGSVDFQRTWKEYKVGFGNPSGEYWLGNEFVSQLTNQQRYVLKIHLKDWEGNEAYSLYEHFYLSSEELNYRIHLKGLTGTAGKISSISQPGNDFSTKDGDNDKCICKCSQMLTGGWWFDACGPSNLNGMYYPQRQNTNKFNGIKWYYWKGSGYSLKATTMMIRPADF

T3: His-tagged human Ang2 (hAng2his8) (human, UniProt O15123 19-496, limits assumed)
T3 construct: neither is tied to this construct; not shown: His tag (his8)
T3 sequence (looked up): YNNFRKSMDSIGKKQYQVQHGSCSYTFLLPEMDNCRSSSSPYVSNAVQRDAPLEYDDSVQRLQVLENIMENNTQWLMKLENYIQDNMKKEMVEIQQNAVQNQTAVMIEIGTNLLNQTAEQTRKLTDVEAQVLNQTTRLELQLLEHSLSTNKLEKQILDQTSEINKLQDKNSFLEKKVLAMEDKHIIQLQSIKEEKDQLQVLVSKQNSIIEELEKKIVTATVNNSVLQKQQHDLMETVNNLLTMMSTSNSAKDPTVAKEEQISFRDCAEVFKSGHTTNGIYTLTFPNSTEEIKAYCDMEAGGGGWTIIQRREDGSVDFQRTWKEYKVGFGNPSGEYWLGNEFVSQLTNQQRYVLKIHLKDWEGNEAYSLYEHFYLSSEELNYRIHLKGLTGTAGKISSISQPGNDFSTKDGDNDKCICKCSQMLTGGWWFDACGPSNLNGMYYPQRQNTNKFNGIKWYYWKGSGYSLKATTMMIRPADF


Key:
hVEGF109 [1] = biological target: T1, hVEGF109; assay: BIACORE T200 SPR, hVEGF109 coupled to CM5 chip, Fab as analyte, VEGF inferred
hVEGF109 [2] = biological target: T1, hVEGF109; assay: phage competition ELISA (phage IC50), hVEGF109 in solution and on the plate, VEGF inferred
[3] = biological target: T2, human Fc fusion of Ang2 protein; assay: BIACORE T200 SPR, human Fc fusion of Ang2 captured by anti-human Fc, Fab as analyte, Ang2 inferred
hVEGF109 [4] = biological target: T1, hVEGF109; assay: BIACORE SPR at 25 C; hVEGF109 immobilized on CM5 chip, Fab as analyte (monovalent affinity)
[5] = biological target: T3, His-tagged human Ang2 (hAng2his8); assay: BIACORE SPR at 25 C; hAng2his8 immobilized on CM5 chip, Fab as analyte (monovalent affinity)
hVEGF109 [6] = biological target: T1, hVEGF109; assay: BIACORE SPR at 25 C; hVEGF109 immobilized on CM5 chip, variant clone as analyte (monovalent affinity)

Row | Binder | IC50 (hVEGF109 [2]) [nM] | also measured
1 | 5A12 4.2 LC.Q89H/LC.L93K ("D") (Fab, V domains shown, 5A12 4.2 variant; Fab on phage in the IC50 assay, purified Fab in SPR) VH: EVQLVESGGGLVQPGGSLRLSCAASGFTISDYWIHWVRQAPGKGLEWVAGITPAGGYTYYADSVKGRFTISADTSKNTAYLQMNSLRAEDTAVYYCARFVFFLPYAMDYWGQGTLVTVSS VL: DIQMTQSPSSLSASVGDRVTITCRASQFLSSFGVAWYQQKPGKAPKLLIYGASSLYSGVPSRFSGSGSGTDFTLTISSLQPEDFATYYCHQGLKSPLTFGQGTKVEIK | 3.71 | Kd (hVEGF109 [1]): 0.675 nM; Kd [3]: 0.259 nM
2 | 5A12 4.2 LC.Q89H (Fab, V domains shown, 5A12 4.2 variant; Fab on phage in the IC50 assay; also called LC-89H) VH: EVQLVESGGGLVQPGGSLRLSCAASGFTISDYWIHWVRQAPGKGLEWVAGITPAGGYTYYADSVKGRFTISADTSKNTAYLQMNSLRAEDTAVYYCARFVFFLPYAMDYWGQGTLVTVSS VL: DIQMTQSPSSLSASVGDRVTITCRASQFLSSFGVAWYQQKPGKAPKLLIYGASSLYSGVPSRFSGSGSGTDFTLTISSLQPEDFATYYCHQGLLSPLTFGQGTKVEIK | 0.138 | –
3 | 5A12 4.2 LC.A34N (Fab, V domains shown, 5A12 4.2 variant; Fab on phage in the IC50 assay; also called LC-34N) VH: EVQLVESGGGLVQPGGSLRLSCAASGFTISDYWIHWVRQAPGKGLEWVAGITPAGGYTYYADSVKGRFTISADTSKNTAYLQMNSLRAEDTAVYYCARFVFFLPYAMDYWGQGTLVTVSS VL: DIQMTQSPSSLSASVGDRVTITCRASQFLSSFGVNWYQQKPGKAPKLLIYGASSLYSGVPSRFSGSGSGTDFTLTISSLQPEDFATYYCQQGLLSPLTFGQGTKVEIK | 221 | –
4 | 5A12 4.2 LC.L92S (Fab, V domains shown, 5A12 4.2 variant; Fab on phage in the IC50 assay; also called LC-92S) VH: EVQLVESGGGLVQPGGSLRLSCAASGFTISDYWIHWVRQAPGKGLEWVAGITPAGGYTYYADSVKGRFTISADTSKNTAYLQMNSLRAEDTAVYYCARFVFFLPYAMDYWGQGTLVTVSS VL: DIQMTQSPSSLSASVGDRVTITCRASQFLSSFGVAWYQQKPGKAPKLLIYGASSLYSGVPSRFSGSGSGTDFTLTISSLQPEDFATYYCQQGSLSPLTFGQGTKVEIK | 27.7 | –
5 | 5A12 4.2 LC.Q89W (Fab, V domains shown, 5A12 4.2 variant; Fab on phage in the IC50 assay; also called LC-89W) VH: EVQLVESGGGLVQPGGSLRLSCAASGFTISDYWIHWVRQAPGKGLEWVAGITPAGGYTYYADSVKGRFTISADTSKNTAYLQMNSLRAEDTAVYYCARFVFFLPYAMDYWGQGTLVTVSS VL: DIQMTQSPSSLSASVGDRVTITCRASQFLSSFGVAWYQQKPGKAPKLLIYGASSLYSGVPSRFSGSGSGTDFTLTISSLQPEDFATYYCWQGLLSPLTFGQGTKVEIK | 2.55 | –
6 | 5A12 4.2.16.2 (Fab, V domains shown, purified Fab as analyte in SPR; also called DAF16.2) VH: EVQLVESGGGLVQPGGSLRLSCAASGFTISDYWIYWVRQAPGKGLEWVAGITPAGGYEYYADSVKGRFTISADTSKNTAYLQMNSLRAEDTAVYYCARFVFFLPYVMDYWGQGTLVTVSS VL: DIQMTQSPSSLSASVGDRVTITCRASQFLSSFGVGWYQQKPGKAPKLLIYGASSLYSGVPSRFSGSGSGTDFTLTISSLQPEDFATYYCWQGLLSPLTFGQGTKVEIK | – | Kd (hVEGF109 [4]): < 0.003 nM; Kd [5]: 1.51 nM
7 | 5A12 4.2 (Fab, V domains shown, also called Fab5A12 4.2) VH: EVQLVESGGGLVQPGGSLRLSCAASGFTISDYWIHWVRQAPGKGLEWVAGITPAGGYTYYADSVKGRFTISADTSKNTAYLQMNSLRAEDTAVYYCARFVFFLPYAMDYWGQGTLVTVSS VL: DIQMTQSPSSLSASVGDRVTITCRASQFLSSFGVAWYQQKPGKAPKLLIYGASSLYSGVPSRFSGSGSGTDFTLTISSLQPEDFATYYCQQGLLSPLTFGQGTKVEIK | – | apparent Kd (pooled screen) (hVEGF109 [6]): 5 nM
8 | 5A12 4.2 LC.L93K (Fab, V domains shown, 5A12 4.2 variant; Fab on phage in the IC50 assay; also called LC-93K) VH: EVQLVESGGGLVQPGGSLRLSCAASGFTISDYWIHWVRQAPGKGLEWVAGITPAGGYTYYADSVKGRFTISADTSKNTAYLQMNSLRAEDTAVYYCARFVFFLPYAMDYWGQGTLVTVSS VL: DIQMTQSPSSLSASVGDRVTITCRASQFLSSFGVAWYQQKPGKAPKLLIYGASSLYSGVPSRFSGSGSGTDFTLTISSLQPEDFATYYCQQGLKSPLTFGQGTKVEIK | 0.48 | –
